Where “and” joins values, the source holds several entries; their conditions need not be identical. Identical values can stand only once.
Tests used:
[1] = target: T1, SAF-p2B (CH3CO at the N terminus and NH2 at the C terminus); assay: circular dichroism of the peptide mixture, 10 µM
T1 peptide: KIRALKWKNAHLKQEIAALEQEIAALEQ
Protocol: (§1) Peptide samples were incubated at 5° C. in 10 mM MOPS (3-(N-Morpholino)propanesulfonic acid), pH 7. Sample concentrations were determined from their UV absorbance at 280 nm (SAF-p1) and 214 nm (SAF-p2). After baseline correction, ellipticities in mdeg were converted to molar ellipticities (deg cm^2 dmol-res^-1) by normalizing for the concentration of peptide bonds. Data were recorded in a cell of 1 mm path length by integrating the signal for 5s (and 1s for the fresh 100 µM peptide mixture) every nm in the range 205–260 nm. CD measurements were made using a JASCO J-715 spectropolarimeter fitted with a Peltier temperature controller.

[2] = target: T1, SAF-p2B; assay: circular dichroism of the peptide mixture, 100 µM
Protocol: as §1

[3] = target: T1, SAF-p2B; assay: thermal melt by circular dichroism of the peptide mixture, 10 µM (expect 19° C. if no interaction)
[4] = target: T1, SAF-p2B; assay: thermal melt by circular dichroism of the peptide mixture, 100 µM (expect 36° C. if no interaction)
[5] = target: T2, SAF-p2A; assay: circular dichroism of the peptide mixture, 10 µM
T2 sequence (peptide): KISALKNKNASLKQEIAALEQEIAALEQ

[6] = target: T2, SAF-p2A; assay: circular dichroism of the peptide mixture, 100 µM
[7] = target: T3, SAF-p2C; assay: circular dichroism of the peptide mixture, 10 µM
T3 construct: Designed peptide, uncapped ends
T3 peptide: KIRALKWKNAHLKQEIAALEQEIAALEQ
Protocol: as §1

[8] = target: T3, SAF-p2C; assay: circular dichroism of the peptide mixture, 100 µM
Protocol: as §1

[9] = target: T2, SAF-p2A; assay: thermal melt by circular dichroism of the peptide mixture, 100 µM
[10] = target: T1, SAF-p2B; assay: thermal melt by circular dichroism of the peptide mixture, 100 µM (expect 38° C. if no interaction)
[11] = target: T4, SAF-p2D; assay: circular dichroism of the peptide mixture, 10 µM
T4 construct: also called Self-Assembling Fibre peptide 2
T4 peptide: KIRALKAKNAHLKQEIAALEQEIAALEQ
Protocol: as §1

[12] = target: T4, SAF-p2D; assay: circular dichroism of the peptide mixture, 100 µM
Protocol: as §1

B1: SAF-p1B (peptide)
peptide: Ac-KIAALKQKIAALKQEIDALEYENDALEQ-NH2
notes: Chemically capped form of SAF-p1A
% α-helix of the mixture (CD) [1]: ~70% | % α-helix of the mixture (CD) [2]: ~80% | Tm of the mixture (CD) [3]: ~25 ° C. | Tm of the mixture (CD) [4]: ~35 ° C.

B2: SAF-p1A (peptide)
peptide: KIAALKQKIAALKQEIDALEYENDALEQ
notes: Prototype designed peptide, uncapped ends
% α-helix of the mixture (CD) [5]: 20% | % α-helix of the mixture (CD) [6]: 40% | % α-helix of the mixture (CD) [7]: ~20% | % α-helix of the mixture (CD) [8]: ~80% | % α-helix of the mixture (CD) [2]: ~65% | Tm of the mixture (CD) [9]: 30 ° C. | Tm of the mixture (CD) [10]: ~36 ° C. and ~46 ° C.

B3: SAF-p1C (peptide)
peptide: KIAALKQKIASLKQEIDALEYENDALEQ
notes: also called Self-Assembling Fibre peptide 1
% α-helix of the mixture (CD) [11]: ~25% | % α-helix of the mixture (CD) [7]: ~25% | % α-helix of the mixture (CD) [12]: ~85% | % α-helix of the mixture (CD) [8]: ~65%

— US7045537B1, “Protein structures and protein fibres” (The University of Sussex, priority 1999, dated 2006)
